From publication PMC4010543

Legend:
[1] = TEPC-15 immunoblot, whole cell lysates; settings: control: wild-type pgl (disaccharide Ac-Gal-diNAcBac), same pilE copy number
[2] = TEPC-15 immunoblot, pilF mutant lysates; settings: glycan gained; control: pglC pilF (no glycan)

B1: PilE: pglC null (protein)
parent chain: MNTLQKGFTLIELMIVIAIVGILAAVALPAYQDYTARAQVSEAILLAEGQKSAVTEYYLNHGKWPENNTSAGVASPPSDIKGKYVKEVEVKNGVVTATMLSSGVNNEIKGKKLSLWARRENGSVKWFCGQPVTRTDDDTVADAKDGKEIDTKHLPSTCRDNFDAK
In the case of B1, the “other: phosphocholine modification of PilE” value (shortened to “other … of PilE”) ([1]; glycan lost) is reported as “increases”.

B2: PilE: pglE ON pilF (trisaccharide) (protein)
parent chain: MNTLQKGFTLIELMIVIAIVGILAAVALPAYQDYTARAQVSEAILLAEGQKSAVTEYYLNHGKWPENNTSAGVASPPSDIKGKYVKEVEVKNGVVTATMLSSGVNNEIKGKKLSLWARRENGSVKWFCGQPVTRTDDDTVADAKDGKEIDTKHLPSTCRDNFDAK
For B2, the “other … of PilE” value [2] was “no change”.

B3: PilE: pglE ON (trisaccharide) in 2xpilE and 3xpilE (protein)
parent chain: MNTLQKGFTLIELMIVIAIVGILAAVALPAYQDYTARAQVSEAILLAEGQKSAVTEYYLNHGKWPENNTSAGVASPPSDIKGKYVKEVEVKNGVVTATMLSSGVNNEIKGKKLSLWARRENGSVKWFCGQPVTRTDDDTVADAKDGKEIDTKHLPSTCRDNFDAK
In the case of B3, the “other … of PilE” value ([1]; glycan changed form) is reported as “decreases”.
